The values below are quoted from earlier work in patent US20230398266A1, “THERAPEUTIC AGENT FOR USE IN LOCAL TREATMENT OF INFLAMMATION ASSOCIATED WITH ATHEROSCLEROSIS AND/OR A THROMBOTIC STATE” (priority 2020, published 2023).

The test system of one data set is patients with COVID-19. As to conditions: for side effects related to systemic administration: patients with COVID-19; for results in patients with COVID-19: systemic administration, preliminary studies.
Data set [1] deals with patients with previous myocardial infarction and elevated inflammatory indices. As to conditions: systemic administration; compared to placebo.

With anakinra, in the data set on patients with COVID-19, the “side effects related to systemic administration” value is given as “severe side effects” and the “results in patients with COVID-19” value is “encouraging results”.
For canakinumab, in data set [1], the “incidence of cardiovascular events (death from heart disease, myocardial infarction, cerebral stroke)” value is “lower incidence of cardiovascular events compared to placebo”; the “incidence of serious side effects such as fatal sepsis and thrombocythemia” value is listed as “higher incidence of serious side effects”.
Take tocilizumab: in the data set with patients with COVID-19, the “side effects related to systemic administration” value was “severe side effects” and the “results in patients with COVID-19” value is listed as “encouraging results”.
